Results published in US20230242675A1 (SHANGHAI EPIMAB BIOTHERAPEUTICS, published 2023).

Columns and labels:
[1] = molecular target: T1, human PD-L1/His fusion protein (human, UniProt Q9NZQ7 19-239); experiment: BLI off-rate; test group 2 (reference itself)
Method: (§1) All 15 antibodies in Table 13 were assayed for and ranked by dissociation rate constant (koff). […] Briefly, antibodies were characterized for affinities and binding kinetics by Octet®RED96 biolayer interferometry (Pall ForteBio LLC). Antibodies were captured by Anti-hIgG Fc Capture (AHC) Biosensors (Pall) at a concentration of 100 nM for 30 seconds. Sensors were then dipped into running buffer (1×pH 7.2 PBS, 0.05% Tween 20, 0.1% BSA) for 60 seconds to check the baseline. Binding was measured by dipping sensors into a single concentration of recombinant human PD-L1/His fusion protein (Novoprotein). Dissociation was followed by dipping sensors into running buffer for 1200 seconds. The association and dissociation curves were fitted to a 1:1 Langmuir binding model using ForteBio Data Analysis software (Pall). […] The off-rate ratio serves as a data normalization. Accordingly, in each test group, the off-rate ratios of the humanized antibodies can be compared with that of the chimeric antibody, and the off-rate ratios of each of the humanized antibodies can be compared to one another within all test groups.

[2] = molecular target: T1, human PD-L1/His fusion protein; experiment: BLI Octet RED96, antibody on AHC sensor, single conc. PD-L1/His; test group 1
Method: as §1

[3] = molecular target: T2, cynomolgus (cyno) PD-L1/His fusion protein (cynomolgus, UniProt G7PSE7 19-239); experiment: BLI Octet RED96, cyno PD-L1; cyno PD-L1, not human
T2 construct: also called cynomolgus PD-L1; not shown: His tag
T2 sequence (G7PSE7 entry or part of it): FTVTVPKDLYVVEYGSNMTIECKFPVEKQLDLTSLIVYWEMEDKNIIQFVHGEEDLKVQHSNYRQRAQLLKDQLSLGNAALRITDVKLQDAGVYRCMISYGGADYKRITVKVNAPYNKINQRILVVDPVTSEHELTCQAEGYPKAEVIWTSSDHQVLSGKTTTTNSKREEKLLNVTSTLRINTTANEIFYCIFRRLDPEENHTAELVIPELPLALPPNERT

[4] = molecular target: T1, human PD-L1/His fusion protein; experiment: ELISA, coated human PD-L1 protein, anti-human Fc detection
Method: (§2) The ability of an antibody to bind human or cynomolgus (cyno) PD-L1 (binding activity) was determined by ELISA. ELISA plates were incubated overnight at 4° C. with 50 μl of the human or cyno PD-L1 protein described above diluted in PBS buffer, pH 7.4, at 1 μg/ml. Plates were washed four times in washing buffer (PBS containing 0.05% Tween 20) and blocked for 1 hour at 37° C. with 200 μl per well of blocking buffer (1% BSA in PBS containing 0.05% Tween 20). After blocking buffer was removed, diluted purified antibodies (200 nM and 1:5 serial dilutions to provide 7 concentrations of each antibody) were added to the wells at 100 μl per well and incubated at 37° C. for 1 hour. The wells were washed four times with washing buffer, and anti-human IgG (Fc-specific) HRP-conjugated antibody (Sigma), diluted 1:10,000, was added to the wells at 100 μl per well. The plates were incubated for 1 hour at 37° C. and washed four times in washing buffer. 100 μl of tetramethylbenzidine (TMB) chromogenic solution were added per well. Following color development, the reaction was stopped with 1 N HCl, and absorbance at 450 nm was measured on a VARIOSKAN™ LUX multimode microplate reader (ThermoFisher Scientific, Vataa, Finland). The data were processed by GraphPad software, and EC50 values were calculated. The EC50 for binding activity according to this ELSA is the concentration at which an antibody induces a response halfway between the baseline and maximum and indicates the binding ability of the antibody.

[5] = molecular target: human PD-L1/Fc Fusion Protein (human); experiment: RBA ELISA: coated PD-L1/Fc, competitor biotinylated human PD-1
human PD-L1/Fc Fusion Protein (human), sequence (chain, as listed by the source limits assumed): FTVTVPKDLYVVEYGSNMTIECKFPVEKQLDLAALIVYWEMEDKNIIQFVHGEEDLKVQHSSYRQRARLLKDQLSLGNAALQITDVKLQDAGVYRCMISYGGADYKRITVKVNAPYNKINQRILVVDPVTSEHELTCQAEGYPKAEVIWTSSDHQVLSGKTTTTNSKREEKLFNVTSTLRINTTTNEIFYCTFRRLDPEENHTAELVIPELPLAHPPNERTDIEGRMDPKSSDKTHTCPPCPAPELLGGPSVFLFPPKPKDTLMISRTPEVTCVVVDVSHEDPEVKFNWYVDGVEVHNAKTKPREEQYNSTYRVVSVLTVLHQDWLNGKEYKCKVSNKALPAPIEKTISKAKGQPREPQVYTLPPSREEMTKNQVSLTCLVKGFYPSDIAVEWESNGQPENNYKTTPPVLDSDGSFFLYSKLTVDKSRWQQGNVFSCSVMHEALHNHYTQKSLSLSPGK
Method: ELISA plates were coated with 100 μl of 1 μg/ml of human PD-L1/Fc in PBS and incubated overnight at 4° C. Plates were washed four times in washing buffer (PBS containing 0.05% Tween 20) and blocked for 1 hour at 37° C. with 200 μl per well of blocking buffer (1% BSA in PBS containing 0.05% Tween 20). […] A human IgG was included as negative control. The signal was developed by adding streptavidin-HRP (Cat. No. S2468, Sigma) (100 μl/well at 1:5000 dilution) and incubating for 40 minutes at 37° C., followed by washing four times in washing buffer. Then, 100 μl of TMB solution were added per well. Following color development, the reaction was stopped with 1 N HCl, and absorbance at 450 nm was measured. The data were processed by GraphPad software, and IC50 values were calculated. […] The signal reduction induced by antibody samples was normalized to inhibition percentage, where the negative control was 0% inhibition, and the absolute value of signal reduction of each antibody divided by the signal of the negative control equals the percent inhibition by the antibody.

[6] = molecular target: T1, human PD-L1/His fusion protein; experiment: BLI Octet RED96, antibody on AHC sensor, PD-L1/His in solution
Method: Binding of antibodies to PD-L1 was also assessed using biolayer interferometry (BLI) using an Octet® RED96 sensor device (Pall ForteBio LLC). Antibodies were captured by anti-hIgG Fc capture (AHC) Biosensors (Pall) at a concentration of 100 nM for 30 seconds. Sensors were then dipped into running buffer (1×pH7.2 PBS, 0.05% Tween 20, 0.1% BSA) for 60 seconds to check the baseline. Binding was measured by dipping sensors into a series of diluted concentrations of recombinant human PD-L1/His fusion protein. Dissociation was followed by dipping sensors into running buffer for 1200 seconds. The association and dissociation curves were fitted to a 1:1 Langmuir binding model using ForteBio Data Analysis software (Pall). The equilibrium dissociation constant KD (molarity) of the reaction between antibodies and related target proteins was then calculated from the kinetic rate constants using the formula KD=koff/kon.

[7] = molecular target: T2, cynomolgus (cyno) PD-L1/His fusion …; experiment: ELISA, coated cyno PD-L1 protein
Method: as §2

[8] = molecular target: T1, human PD-L1/His fusion protein; experiment: BLI off-rate; test group 1 (reference itself)
Method: as §1

[9] = molecular target: T1, human PD-L1/His fusion protein; experiment: BLI Octet RED96, antibody on AHC sensor, single conc. PD-L1/His; test group 2
Method: as §1

[10] = molecular target: T1, human PD-L1/His fusion protein; experiment: BLI Octet RED96, antibody on AHC sensor, single conc. PD-L1/His; test group 3
Method: as §1

[11] = molecular target: T1, human PD-L1/His fusion protein; experiment: BLI off-rate; test group 3 (reference itself)
Method: as §1

[12] = molecular target: T3, human PD-L1 on the cell surface (CHO-K1 cells stably expressing human PD-L1) (human, UniProt Q9NZQ7 19-290); experiment: FACS on CHO-K1/hPD-L1 cells
T3 construct: whole, on cells; Also used here for PD-L1 on the monocyte-derived dendritic cells of the MLR assay (functional rows); also called CHO-K1/PD-L1; CHOK1-PD-L1
T3 sequence (Q9NZQ7 19-290): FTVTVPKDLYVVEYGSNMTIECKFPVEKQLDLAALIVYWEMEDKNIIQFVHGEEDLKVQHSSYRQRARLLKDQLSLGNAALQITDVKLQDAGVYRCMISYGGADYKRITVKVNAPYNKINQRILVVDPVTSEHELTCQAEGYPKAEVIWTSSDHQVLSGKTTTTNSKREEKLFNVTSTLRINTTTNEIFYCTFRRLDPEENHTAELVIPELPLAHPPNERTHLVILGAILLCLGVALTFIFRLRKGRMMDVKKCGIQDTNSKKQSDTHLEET
Method: The ability of the purified antibodies to bind to cell membrane human PD-L1 was determined by FACS analysis. CHO-K1 cells stably expressing human PD-L1 (CHO-K1/hPD-L1 cells) were resuspended in PBS containing 2% FBS (FACS buffer) and seeded at 1×10⁵ cells/well into 96-well round-bottomed plates (Corning; Cat. No. 3799). […] The assay plate was then read on a flow cytometer. The data were processed by GraphPad software, and EC50 values were calculated. The EC50 for binding activity according to this FACS analysis is the concentration at which of an antibody induces a response halfway between the baseline and maximum and reflects the binding ability of the antibody.

T1 sequence (Q9NZQ7 19-239 limits assumed): as the sequence (G7PSE7 entry or part of it) above, with T33A, S34A, N62S, Q68R, R82Q, L173F, A185T, I192T, L215H counted along it

B1: EM0005-mAb86c (antibody, human IgG1, kappa, V domains shown)
VH: QVQLQQSGAELVRPGSSVKMSCKTSGYTFTTYGINWVKQRPGQGLEWIGYIYIGNGYTEYNEKFKGKATLTSDPSSRTAYMQLSSLTSEDSAIYFCARDLMVIAPKTMDYWGQGTSVTVSS
VL: DIQMNQSHKFMSTSVGDRVSITCKASQDVGTAVAWYQQKPGQSPKLLIYWASTRHTGVPDRFTGGGSGTDFTLTISNVQSEDLADYFCQQYSSYPYTFGGGTKLEMKR
notes: Chimeric full-length IgG1; also called EM0005-86c; EM0005-86C
Q: Which “Off-Rate Ratio to that of EM0005-86c” value [1] does the source give for B1 here?
A: 100%

Q: And the koff [2]?
A: 0.00123 s⁻¹

Q: What about the Kd [3] of the same binder?
A: 0.373 nM

Q: And the EC50 [4]?
A: 0.14 nM

Q: What about the IC50 [5] of the same binder?
A: 1.09 nM

Q: And the “Inhibition (percent)” value [5]?
A: 97.4%

Q: And the Kd [6]?
A: 0.261 nM

Q: And the EC50 [7]?
A: 0.1 nM

Q: And the “Off-Rate Ratio to that of EM0005-86c” value [8]?
A: 100%

Q: And the koff [9]?
A: 0.00179 s⁻¹

Q: And the koff [10]?
A: 0.00103 s⁻¹

Q: What about the “Off-Rate Ratio to that of EM0005-86c” value [11] of the same binder?
A: 100%

Q: And the EC50 [12]?
A: 0.22 nM
